# Experimental data reported in US20250197820A1, “NUCLEIC ACID POLYMERASE AND ITS USE IN PRODUCING NON-DNA NUCLEOTIDE POLYMERS” (UNITED KINGDOM RESEARCH AND INNOVATION, priority 2021, published 2025).
# Columns and labels:
# Type in all cases: biochemical
# [1] = target: T1, 2M (Thermococcus gorgonarius, UniProt P56689, A485L/D141A/E143A/E664K/F545L/I521L/K592A/T541G/V93Q/Y409G); assay: Steady-state kinetics of single nucleotide incorporation by 2M; conditions: single nucleotide incorporation from 2′OMe-RNA primer; for improvement of KM value compared to ATP: 50° C.
# T1 construct: made in house; host or cells: E. coli BL21 CodonPlus-RIL
# Method: Steady-state kinetic parameters for NTP incorporation by 2M were determined by performing initial velocity measurements of single incorporations of either ATP, 2′OMe-ATP, or MOE-ATP. To generate the 2′OMe-RNA/DNA substrate, a 20-mer 2′OMe-RNA primer FD was 5′ 6-carboxyfluorescein end-labeled and annealed to the 52-mer DNA template BFL770 (Supplementary Table 1) at a 1:1.2 molar ratio. The reactions were performed at 50° C. in a mixture containing 1× Thermopol buffer, 6 mM Mg^2+, 100 nM 2′OMe-RNA/DNA substrate, and at NTP concentrations ranging from 0.5-250 μM. Enzyme concentrations and reaction times were selected to maintain initial velocity conditions. The 25 μL reactions were stopped by addition of a quenching solution containing 100 mM EDTA, 80% deionized formamide, 0.25 mg/ml bromophenol blue and 0.25 mg/ml xylene cyanol. Moreover, less than 20% of the primers were extended as required for steady-state conditions.
# Product and substrate were separated on a 22% denaturing (8 M urea) polyacrylamide gel. The resulting bands were quantified using a Cytiva Typhoon RGB imager in fluorescence mode. Steady-state kinetic parameters (KM, kcat) were determined by fitting the data to the Michaelis-Menten equation. The data are the means and standard error from three independent experiments.
# [2] = test system: template TempNpure; assay: Primer extension on defined-sequence template (denaturing PAGE)
# Method: (§1) Analytical primer extension reactions were carried out in 1× Thermopol buffer (NEB) supplemented with MgSO4 (4 mM). Primer (100 nM) was extended on a template (200 nM) with appropriate nucleoside triphosphates (125-250 μM each) by purified polymerase (10-100 μg/mL) in a 10-μL reaction volume. Reactions were carried out at 65° C. Primer extension products were analysed via urea-PAGE. All extensions with MOE-NTPs on defined-sequence template TempNpure required post-synthesis template capture with a ten-fold excess of antisense template, Turbo DNase (Invitrogen) treatment, subsequent Proteinase K (NEB) treatment, and loading on the urea-PAGE gel with a ten-fold excess of antisense template. Primer extensions with MOE-NTPs on template sfGFP required polymerase concentrations of 500 μg/mL.
# [3] = test system: random N40 template Tag3.3-N40-Test2; assay: Primer extension on random N40 template (denaturing PAGE, densitometry)
# Method: as §1
# [4] = test system: template sfGFP; assay: Long-range synthesis of a GFP transcript; conditions: 2′OMe-RNA primer Synth-out1mm
# Method: as §1
# [5] = FIG. 1g, RNA/2′OMe-RNA primer A-Test2, full length +79 nt
# [6] = FIG. 3e, 2′OMe-RNA primer A-Test2, full length +79 nt
Molecule,Vmax/kcat values for incorporation [1],improvement of KM value compared to ATP [1],2′OMe-RNA synthesis activity (in words) ([2]; denaturing PAGE),"densitometry of N40 synthesis yield, 2′OMe-RNA [3, 5]","densitometry of N40 synthesis yield, 2′OMe-RNA [3, 6]","densitometry of N40 synthesis yield, MOE-RNA [3, 6]",further results
COCCOC1C(O)C(COP(=O)(O)OP(=O)(O)OP(=O)(O)O)OC1n1cnc2c(N)ncnc21 (stereo not shown) [MOE-ATP],essentially identical,approximately 5 fold,,,,,
CO[C@@H]1[C@H](O)[C@@H](COP(=O)(O)OP(=O)(O)OP(=O)(O)O)O[C@H]1n1cnc2c(N)ncnc21 [2′OMe-ATP],essentially identical,approximately 5 fold,,,,,
"TGLLK: Tgo: V93Q, D141A, E143A, Y409G, A485L, I521L, F545L, E664K; previously described parent polymerase (protein, UniProt P56689 1-773, looked up, variant V93Q D141A E143A Y409G A485L I521L F545L E664K) DNA polymerase: MILDTDYITEDGKPVIRIFKKENGEFKIDYDRNFEPYIYALLKDDSAIEDVKKITAERHGTTVRVVRAEKVKKKFLGRPIEVWKLYFTHPQDQPAIRDKIKEHPAVVDIYEYDIPFAKRYLIDKGLIPMEGDEELKMLAFAIATLYHEGEEFAEGPILMISYADEEGARVITWKNIDLPYVDVVSTEKEMIKRFLKVVKEKDPDVLITYNGDNFDFAYLKKRSEKLGVKFILGREGSEPKIQRMGDRFAVEVKGRIHFDLYPVIRRTINLPTYTLEAVYEAIFGQPKEKVYAEEIAQAWETGEGLERVARYSMEDAKVTYELGKEFFPMEAQLSRLVGQSLWDVSRSSTGNLVEWFLLRKAYERNELAPNKPDERELARRRESYAGGYVKEPERGLWENIVYLDFRSLGPSIIITHNVSPDTLNREGCEEYDVAPQVGHKFCKDFPGFIPSLLGDLLEERQKVKKKMKATIDPIEKKLLDYRQRLIKILANSFYGYYGYAKARWYCKECAESVTAWGRQYLETTIREIEEKFGFKVLYADTDGFLATIPGADAETVKKKAKEFLDYINAKLPGLLELEYEGFYKRGFFVTKKKYAVIDEEDKITTRGLEIVRRDWSEIAKETQARVLEAILKHGDVEEAVRIVKEVTEKLSKYEVPPEKLVIYKQITRDLKDYKATGPHVAVAKRLAARGIKIRPGTVISYIVLKGSGRIGDRAIPFDEFDPAKHKYDAEYYIENQVLPAVERILRAFGYRKEDLRYQKTRQVGLGAWLKPKT",,,comparatively inefficient,0%,1%,0%,
"2M: Tgo polymerase with V93Q, D141A, E143A, Y409G, A485L, I521L, T541G, F545L, K592A, E664K (SEQ ID NO: 3) (protein) MILDTDYITEDGKPVIRIFKKENGEFKIDYDRNFEPYIYALLKDDSAIEDVKKITAERHGTTVRVVRAEKVKKKFLGRPIEVWKLYFTHPQDQPAIRDKIKEHPAVVDIYEYDIPFAKRYLIDKGLIPMEGDEELKMLAFAIATLYHEGEEFAEGPILMISYADEEGARVITWKNIDLPYVDVVSTEKEMIKRFLKVVKEKDPDVLITYNGDNFDFAYLKKRSEKLGVKFILGREGSEPKIQRMGDRFAVEVKGRIHFDLYPVIRRTINLPTYTLEAVYEAIFGQPKEKVYAEEIAQAWETGEGLERVARYSMEDAKVTYELGKEFFPMEAQLSRLVGQSLWDVSRSSTGNLVEWFLLRKAYERNELAPNKPDERELARRRESYAGGYVKEPERGLWENIVYLDFRSLGPSIIITHNVSPDTLNREGCEEYDVAPQVGHKFCKDFPGFIPSLLGDLLEERQKVKKKMKATIDPIEKKLLDYRQRLIKILANSFYGYYGYAKARWYCKECAESVTAWGRQYLETTIREIEEKFGFKVLYADGDGFLATIPGADAETVKKKAKEFLDYINAKLPGLLELEYEGFYKRGFFVTKAKYAVIDEEDKITTRGLEIVRRDWSEIAKETQARVLEAILKHGDVEEAVRIVKEVTEKLSKYEVPPEKLVIYKQITRDLKDYKATGPHVAVAKRLAARGIKIRPGTVISYIVLKGSGRIGDRAIPFDEFDPAKHKYDAEYYIENQVLPAVERILRAFGYRKEDLRYQKTRQVGLGAWLKPKT",,,striking increase in 2′OMe-RNA synthesis activity,90%,84%,65%,"time to reach full length synthesis (+72 nt), 2′OMe-RNA ([2]; 2′OMe-RNA primer FD): < 5 min; time to reach full length synthesis (+72 nt), MOE-RNA ([2]; 2′OMe-RNA primer FD): < 20 min; MOE-RNA synthesis (in words) ([2]; denaturing PAGE): able to efficiently synthesize MOE-RNA; time to reach full length synthesis (+79 nt), 2′OMe-RNA ([3]; 2′OMe-RNA primer FD-Test2): < 10 min; time to reach full length synthesis (+79 nt), DNA ([3]; 2′OMe-RNA primer FD-Test2): < 1 min; time to reach full length synthesis (+79 nt), MOE-RNA ([3]; 2′OMe-RNA primer FD-Test2): < 30 min; long-range 2′OMe-RNA synthesis length [4]: 750 nt; long-range MOE-RNA synthesis length [4]: 750 nt"
2M+D614N: 2M polymerase bearing the DGLNK mutation D614N (SEQ ID NO: 5) (protein) MILDTDYITEDGKPVIRIFKKENGEFKIDYDRNFEPYIYALLKDDSAIEDVKKITAERHGTTVRVVRAEKVKKKFLGRPIEVWKLYFTHPQDQPAIRDKIKEHPAVVDIYEYDIPFAKRYLIDKGLIPMEGDEELKMLAFAIATLYHEGEEFAEGPILMISYADEEGARVITWKNIDLPYVDVVSTEKEMIKRFLKVVKEKDPDVLITYNGDNFDFAYLKKRSEKLGVKFILGREGSEPKIQRMGDRFAVEVKGRIHFDLYPVIRRTINLPTYTLEAVYEAIFGQPKEKVYAEEIAQAWETGEGLERVARYSMEDAKVTYELGKEFFPMEAQLSRLVGQSLWDVSRSSTGNLVEWFLLRKAYERNELAPNKPDERELARRRESYAGGYVKEPERGLWENIVYLDFRSLGPSIIITHNVSPDTLNREGCEEYDVAPQVGHKFCKDFPGFIPSLLGDLLEERQKVKKKMKATIDPIEKKLLDYRQRLIKILANSFYGYYGYAKARWYCKECAESVTAWGRQYLETTIREIEEKFGFKVLYADGDGFLATIPGADAETVKKKAKEFLDYINAKLPGLLELEYEGFYKRGFFVTKAKYAVIDEEDKITTRGLEIVRRNWSEIAKETQARVLEAILKHGDVEEAVRIVKEVTEKLSKYEVPPEKLVIYKQITRDLKDYKATGPHVAVAKRLAARGIKIRPGTVISYIVLKGSGRIGDRAIPFDEFDPAKHKYDAEYYIENQVLPAVERILRAFGYRKEDLRYQKTRQVGLGAWLKPKT,,,small enhancement,,,,
3M: Tgo polymerase as 2M but with E664R (SEQ ID NO: 4) (protein) MILDTDYITEDGKPVIRIFKKENGEFKIDYDRNFEPYIYALLKDDSAIEDVKKITAERHGTTVRVVRAEKVKKKFLGRPIEVWKLYFTHPQDQPAIRDKIKEHPAVVDIYEYDIPFAKRYLIDKGLIPMEGDEELKMLAFAIATLYHEGEEFAEGPILMISYADEEGARVITWKNIDLPYVDVVSTEKEMIKRFLKVVKEKDPDVLITYNGDNFDFAYLKKRSEKLGVKFILGREGSEPKIQRMGDRFAVEVKGRIHFDLYPVIRRTINLPTYTLEAVYEAIFGQPKEKVYAEEIAQAWETGEGLERVARYSMEDAKVTYELGKEFFPMEAQLSRLVGQSLWDVSRSSTGNLVEWFLLRKAYERNELAPNKPDERELARRRESYAGGYVKEPERGLWENIVYLDFRSLGPSIIITHNVSPDTLNREGCEEYDVAPQVGHKFCKDFPGFIPSLLGDLLEERQKVKKKMKATIDPIEKKLLDYRQRLIKILANSFYGYYGYAKARWYCKECAESVTAWGRQYLETTIREIEEKFGFKVLYADGDGFLATIPGADAETVKKKAKEFLDYINAKLPGLLELEYEGFYKRGFFVTKAKYAVIDEEDKITTRGLEIVRRDWSEIAKETQARVLEAILKHGDVEEAVRIVKEVTEKLSKYEVPPEKLVIYRQITRDLKDYKATGPHVAVAKRLAARGIKIRPGTVISYIVLKGSGRIGDRAIPFDEFDPAKHKYDAEYYIENQVLPAVERILRAFGYRKEDLRYQKTRQVGLGAWLKPKT,,,virtually identical synthesis activity,,,,
